# T1: human Siglec-15 (Acro, Cat. No. SG5-H52H3) (human, UniProt Q6ZMC9 20-263)
# T1 construct: Bought reagent used as the analyte in the Octet assay; also called antigen
# T1 sequence (looked up): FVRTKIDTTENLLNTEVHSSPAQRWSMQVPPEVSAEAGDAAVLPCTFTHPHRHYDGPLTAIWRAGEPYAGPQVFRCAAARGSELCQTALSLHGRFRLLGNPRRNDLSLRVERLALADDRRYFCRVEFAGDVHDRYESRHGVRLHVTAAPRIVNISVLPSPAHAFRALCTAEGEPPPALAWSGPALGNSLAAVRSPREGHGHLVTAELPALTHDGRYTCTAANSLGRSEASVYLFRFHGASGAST
# Molecular target: T1, human Siglec-15 (Acro, Cat. No. …)
# Test: BLI (Octet RED96e), antibody captured on AHC sensor, 30 nM antigen, 1:1 fit; second assay
# Parameters: Response value: unit not given here
# Description: Affinity of Siglec-15 binding protein of the present application to human Siglec-15 (Acro, Cat. No.: SG5-H52H3) was determined using Octet RED96e (Fortebio), both of the antigen and the Siglec-15 binding protein of the present application were diluted with 1×PBST (1×PBS: Sangon, B548117-0500; 0.02% Tween 20: Sigma-aldrich, P1379). The antigen is used at a concentration of 30 nM and the Siglec-15 binding protein of the present application is used at a concentration of 33.3 nM.
# First, a sample was added to a 96-well plate (Greiner bio-one, 655209) in a system of 200 μL/well. Software parameters were then set, the plate temperature was set to 30° C., and the frequency at which the standard kinetic signal was collected was 5.0 Hz. Next, the AHC sensor (Fortébio, Cat. No.: 18-0015) was pre-wetted with 1×PBST for 10 min, then the sample was loaded on the machine for detection, with each cycle containing the following steps: 1) immersing the sample in buffer for 60 s; 2) detecting whether the antigen has non-specific binding to the sensor; 3) regenerating in a 10 mM glycine solution at pH 1.7; 4) immersing in buffer for 60 s; 5) immobilizing the Siglec-15 binding protein of the present application on the sensor for 20 s; 6) immersing the sensor in buffer for 180 s; 7) binding the antigen to the Siglec-15 binding protein of the present application for 180 s; 8) dissociating the antigen with Siglec-15 binding protein of the present application for 10 min; and 9) regenerating the sensor.
# The equilibrium dissociation constant (KD) of the Siglec-15 binding protein of the present application was calculated by determining the binding rate constant (kon) and dissociation rate constant (kdis) of the antigen-Siglec-15 binding protein of the present application in a 1:1 binding manner using Data Analysis 12.0 software fromx Fortebio.
Binder,Kd,Response value,koff,kon
"Ab2, purified Siglec-15 binding protein in the form of IgG1 (antibody, V domains shown, Expressed in ExpiCHO cells in the form of IgG1) VH: EVQLLESGGGLVQPGGSLRLSCAASGFTSSSYAMSWVRQAPGKGLEWVSTISGGGGSTYYADSVKGRFTISRDNSKNTLYLQMNSLRAEDTAVYYCAKAIGSSWYSDAFDLWGQGTMVTVSS VL: DIQMTQSPSSVSASVGDRVTITCRASQDISSWLAWYQQKPGKAPKLLIYVASSLQSGVPSRFSGSGSGTDFTLTISSLQPEDFATYYCQQSYSIPYTFGQGTKLEIKR",155 pM,0.262,6.96e-05 s⁻¹,448000 M⁻¹ s⁻¹
"Ab6, purified Siglec-15 binding protein in the form of IgG1 (antibody, V domains shown, Expressed in ExpiCHO cells in the form of IgG1) VH: EVQLLESGGGLVQPGGSLRLSCAASGFTFSSYAMSWVRQAPGKGLEWVSTIWGGGGSTYYADSVKGRFTISRDNSKNTLYLQMNSLRAEDTAVYYCAKAIGSSWYSDAFDLWGQGTMVTVSS VL: DIQMTQSPSSVSASVGDRVTITCRASQDISSWLAWYQQKPGKAPKLLIYVASSLQSGVPSRFSGSGSGTDFTLTISSLQPEDFATYYCQQSYSIPYTFGQGTKLEIKR",8.43 pM,0.285,2.87e-06 s⁻¹,340000 M⁻¹ s⁻¹
"Ab5, purified Siglec-15 binding protein in the form of IgG1 (antibody, V domains shown, Expressed in ExpiCHO cells in the form of IgG1) VH: EVQLLESGGGLVQPGGSLRLSCAASGFTFSSYAMSWVRQAPGKGLEWVSTIYGGGGSTYYADSVKGRFTISRDNSKNTLYLQMNSLRAEDTAVYYCAKAIGSSWYSDAFDLWGQGTMVTVSS VL: DIQMTQSPSSVSASVGDRVTITCRASQDISSWLAWYQQKPGKAPKLLIYVASSLQSGVPSRFSGSGSGTDFTLTISSLQPEDFATYYCQQSYSIPYTFGQGTKLEIKR",7.6 pM,0.277,2.57e-06 s⁻¹,338000 M⁻¹ s⁻¹
"Ab13, purified Siglec-15 binding protein in the form of IgG1 (antibody, V domains shown, Expressed in ExpiCHO cells in the form of IgG1) VH: EVQLLESGGGLVQPGGSLRLSCAASGFTFSSYAMSWVRQAPGKGLEWVSTITGGGESTYYADSVKGRFTISRDNSKNTLYLQMNSLRAEDTAVYYCAKAIGSSWYSDAFDLWGQGTMVTVSS VL: DIQMTQSPSSVSASVGDRVTITCRASQDISSWLAWYQQKPGKAPKLLIYVASFEHRGVPSRFSGSGSGTDFTLTISSLQPEDFATYYCQQSYSIPYTFGQGTKLEIKR",68.1 pM,0.305,3.79e-05 s⁻¹,556000 M⁻¹ s⁻¹
"Ab3, purified Siglec-15 binding protein in the form of IgG1 (antibody, V domains shown, Expressed in ExpiCHO cells in the form of IgG1) VH: EVQLLESGGGLVQPGGSLRLSCAASGFTFSSYAMSWVRQAPGKGLEWVSTITGGGESTYYADSVKGRFTISRDNSKNTLYLQMNSLRAEDTAVYYCAKAIGSSWYSDAFDLWGQGTMVTVSS VL: DIQMTQSPSSVSASVGDRVTITCRASQDISSWLAWYQQKPGKAPKLLIYVASSLQSGVPSRFSGSGSGTDFTLTISSLQPEDFATYYCQQSYSIPYTFGQGTKLEIKR",44.4 pM,0.288,1.95e-05 s⁻¹,440000 M⁻¹ s⁻¹
"Ab7, purified Siglec-15 binding protein in the form of IgG1 (antibody, V domains shown, Expressed in ExpiCHO cells in the form of IgG1) VH: EVQLLESGGGLVQPGGSLRLSCAASGFTFSSYAMSWVRQAPGKGLEWVSTISGGGVYTYYADSVKGRFTISRDNSKNTLYLQMNSLRAEDTAVYYCAKAIGSSWYSDAFDLWGQGTMVTVSS VL: DIQMTQSPSSVSASVGDRVTITCRASQDISSWLAWYQQKPGKAPKLLIYVASSLQSGVPSRFSGSGSGTDFTLTISSLQPEDFATYYCQQSYSIPYTFGQGTKLEIKR",5.08 pM,0.284,1.44e-06 s⁻¹,282000 M⁻¹ s⁻¹

# Source: patent US20240124576A1 (SHANGHAI JEMINCARE PHARMACEUTICAL, published 2024)
